# Data: IntAct's records for PubMed 21807993
# B1: E4 ubiquitin-protein ligase UFD2 (Saccharomyces cerevisiae), P54860 (parent)
# chain: MTAIEDILQITTDPSDTRGYSLLKSEEVPQGSTLGVDFIDTLLLYQLTENEKLDKPFEYLNDCFRRNQQQKRITKNKPNAESLHSTFQEIDRLVIGYGVVALQIENFCMNGAFINYITGIVSNVNSYTDFLSQIIQRAILEGTALDLLNAVFPTLLEYCNKHVSHFDLNESVIYNNVLTIFELFVTFKPIAEIFTKIDGFFADYSCKPQDFERKTILGPILSLSPIEAAVAIRNYGDNLLRSKQQTAMIHESLQAEHKVVIDRLFFIVDKLVRGSLNSRTDMISYFAHIANKNHLRRADHPPFKELSSNGFMSNITLLLVRFSQPFLDISYKKIDKIDANYFNNPSLFIDLSGETRLNSDFKEADAFYDKNRKTADSKPNFISDCFFLTLTYLHYGLGGTLSFEEKMGSEIKALKEEIEKVKKIAANHDVFARFITAQLSKMEKALKTTESLRFALQGFFAHRSLQLEVFDFICGASTFLIRVVDPEHEFPFKQIKLPLIPDQIGVENVDNADFLRAHAPVPFKYYPEFVVEGPVNYSLYISKYQTSPIFRNPRLGSFVEFTTMVLRCPELVSNPHLKGKLVQLLSVGAMPLTDNSPGFMMDIFEHDELVNKNLLYALLDFYVIVEKTGSSSQFYDKFNSRYSISIILEELYYKIPSYKNQLIWQSQNNADFFVRFVARMLNDLTFLLDEGLSNLAEVHNIQNELDNRARGAPPTREEEDKELQTRLASASRQAKSSCGLADKSMKLFEIYSKDIPAAFVTPEIVYRLASMLNYNLESLVGPKCGELKVKDPQSYSFNPKDLLKALTTVYINLSEQSEFISAVAKDERSFNRNLFVRAVDILGRKTGLASPEFIEKLLNFANKAEEQRKADEEEDLEYGDVPDEFLDPLMYTIMKDPVILPASKMNIDRSTIKAHLLSDSTDPFNRMPLKLEDVTPNEELRQKILCFKKQKKEEAKHKASE
# Variants of: B1
# Settings: with cdc48_yeast CDC48, P25694
# Sequence of cdc48_yeast CDC48, P25694 (P25694 whole entry): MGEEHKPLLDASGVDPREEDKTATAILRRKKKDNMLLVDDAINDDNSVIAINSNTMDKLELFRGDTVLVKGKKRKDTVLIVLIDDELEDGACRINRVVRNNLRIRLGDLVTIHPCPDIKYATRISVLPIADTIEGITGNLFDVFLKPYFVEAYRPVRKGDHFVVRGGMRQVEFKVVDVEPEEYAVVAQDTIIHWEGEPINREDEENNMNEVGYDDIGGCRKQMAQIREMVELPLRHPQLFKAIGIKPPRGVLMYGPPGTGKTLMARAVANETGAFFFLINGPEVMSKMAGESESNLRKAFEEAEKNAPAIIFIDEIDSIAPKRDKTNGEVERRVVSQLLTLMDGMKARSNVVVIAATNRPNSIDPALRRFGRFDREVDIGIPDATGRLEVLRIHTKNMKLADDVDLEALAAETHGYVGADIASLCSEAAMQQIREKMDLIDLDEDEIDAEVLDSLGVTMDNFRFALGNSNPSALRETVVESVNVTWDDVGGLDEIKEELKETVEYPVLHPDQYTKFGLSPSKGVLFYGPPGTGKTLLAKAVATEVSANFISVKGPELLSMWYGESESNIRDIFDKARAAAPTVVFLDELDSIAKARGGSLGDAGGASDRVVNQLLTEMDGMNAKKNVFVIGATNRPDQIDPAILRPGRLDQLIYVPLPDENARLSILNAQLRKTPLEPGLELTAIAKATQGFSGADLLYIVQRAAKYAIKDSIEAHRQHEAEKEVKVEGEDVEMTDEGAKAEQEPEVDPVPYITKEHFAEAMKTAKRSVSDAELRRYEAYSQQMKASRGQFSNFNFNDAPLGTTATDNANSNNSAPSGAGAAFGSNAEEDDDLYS
row,effect of a mutation on the interaction,Variant
1,disrupting interaction strength,C385Y
2,disrupting interaction strength,G274D
